Results reported in publication PMC4756856 (Nucleic Acids Research, 2016).

Target: the molecule itself
Assay: SEC-MALS

B1: TyrRSΔE2–4′ (TyrRSΔE2–4 splice variant of human tyrosyl-tRNA synthetase without the flexible linker aa343–360) (natural protein, UniProt P54577 1-528, looked up)
chain: MGDAPSPEEKLHLITRNLQALDEEYLKVDAQFGGIDQRKIFTFAEKYLPALGYSKRVHLMNPMVPGLTGSKMSSSEEESKIDLLDRKEDVKKKLKKAFCEPGNVENNGVLSFIKHVLFPLKSEFVILRDEKWGGNKTYTAYVDLEKDFAAEVVHPGDLKNSVEVALNKLLDPIREKFNTPALKKLASAAYPEEVIPSRLDIRVGKIITVEKHPDADSLYVEKIDVGEAEPRTVVSGLVQFVPKEELQDRLVVVLCNLKPQKMRGVESQGMLLCASIEGINRQVEPLDPPAGSAPGEHVFVKGYEKGQPDEELKPKKKVFEKLQADFKISEECIAQWKQTNFMTKLGSISCKSLKGGNIS
B1 was tested, and the “stoichiometry N” value was 2.
